Reference: patent US20150344570A1 (published 2015)

T1: FcgRIIaR (human, UniProt P12318 34-217)
T1 construct: extracellular domain; Soluble extracellular domain with C-terminal His tag, expressed in FreeStyle293 cells; also called FcγRIIa R; FcgRIIa type R; not shown: His tag at the C terminus
T1 sequence (looked up): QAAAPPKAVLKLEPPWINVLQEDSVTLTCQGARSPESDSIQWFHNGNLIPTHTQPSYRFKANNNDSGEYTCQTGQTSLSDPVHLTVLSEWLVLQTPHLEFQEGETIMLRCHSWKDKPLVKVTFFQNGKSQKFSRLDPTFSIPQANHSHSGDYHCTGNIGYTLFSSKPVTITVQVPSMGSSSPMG

T2: FcgRIIaH (human, UniProt P12318 34-217)
T2 construct: extracellular domain; Soluble extracellular domain with C-terminal His tag, expressed in FreeStyle293 cells; also called FcγRIIa H; FcgRIIa type H; not shown: His tag at the C terminus
T2 sequence (looked up): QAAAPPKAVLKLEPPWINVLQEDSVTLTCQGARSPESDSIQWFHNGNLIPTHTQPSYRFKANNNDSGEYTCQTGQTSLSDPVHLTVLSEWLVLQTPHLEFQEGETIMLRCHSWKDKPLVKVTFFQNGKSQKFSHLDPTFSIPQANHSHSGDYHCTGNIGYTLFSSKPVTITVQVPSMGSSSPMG

T3: FcgRIIb (human, UniProt P31994 43-217)
T3 construct: extracellular domain; Soluble extracellular domain with C-terminal His tag, expressed in FreeStyle293 cells; also called FcγRIIb; 2b; not shown: His tag at the C terminus
T3 sequence (looked up): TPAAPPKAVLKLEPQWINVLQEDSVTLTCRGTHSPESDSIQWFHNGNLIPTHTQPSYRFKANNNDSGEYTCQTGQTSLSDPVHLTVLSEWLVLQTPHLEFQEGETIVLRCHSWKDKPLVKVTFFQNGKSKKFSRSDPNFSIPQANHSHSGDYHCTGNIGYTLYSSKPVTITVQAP


What was measured:
[1] = biological target: T1, FcgRIIaR; assay: SPR (Biacore), antibody captured on chip, FcgR extracellular domain as analyte
[2] = biological target: T2, FcgRIIaH; assay: as above
[3] = biological target: T3, FcgRIIb; assay: as above
[4] = biological target: T3, FcgRIIb; assay: SPR (Biacore); KD of the variant for FcgRIIaR divided by its KD for FcgRIIb

Row | Binder | Relative KD (KD of IL6R-B3/IL6R-L divided by KD of the variant) [1] | Relative KD (KD of IL6R-B3/IL6R-L divided by KD of the variant) [2] | Relative KD (KD of IL6R-B3/IL6R-L divided by KD of the variant) [3] | KD(IIaR)/KD(IIb) [4]
1 | IL6R-BP253/IL6R-L (antibody, human IgG1, kappa, Homodimerized antibody) heavy: QVQLQESGPGLVKPSETLSLTCAVSGHSISHDHAWSWVRQPPGEGLEWIGFISYSGITNYNPSLQGRVTISRDNSKNTLYLQMNSLRAEDTAVYYCARSLARTTAMDYWGEGTLVTVSSASTKGPSVFPLAPSSKSTSGGTAALGCLVKDYFPEPVTVSWNSGALTSGVHTFPAVLQSSGLYSLSSVVTVPSSSLGTQTYICNVNHKPSNTKVDKKVEPKSCDKTHTCPPCPAPELLGGPSVFLFPPKPKDTLMISRTPEVTCVVVDVEHEDPEVKFNWYVDGVEVHNAKTKPREEQYNSTYRVVSVLTVLHQDWLNGKEYKCKVSNKAFPAPIEKTISKAKGQPREPQVYTLPPSRDELTKNQVSLTCLVKGFYPSDIAVEWESNGQPENNYKTTPPVLDSDGSFFLYSKLTVDKSRWQQGNVFSCSVMHEALHNHYTQESLSLSP light: not shown | 480 | 0.9 | 349 | 0.3
2 | IL6R-AP002/IL6R-BP256/IL6R-L (antibody, human IgG1, kappa, Heterodimerized antibody (two different H chains, same variable region), S239D in one H chain only) heavy 1: QVQLQESGPGLVKPSETLSLTCAVSGHSISHDHAWSWVRQPPGEGLEWIGFISYSGITNYNPSLQGRVTISRDNSKNTLYLQMNSLRAEDTAVYYCARSLARTTAMDYWGEGTLVTVSSASTKGPSVFPLAPSSKSTSGGTAALGCLVKDYFPEPVTVSWNSGALTSGVHTFPAVLQSSGLYSLSSVVTVPSSSLGTQTYICNVNHKPSNTKVDKKVEPKSCDKTHTCPPCPAPDLLGDDSVFLFPPKPKDTLMISRTPEVTCVVVDVSDEDGEVKFNWYVDGVEVHNAKTKPREEQYNSTYRVVSVLTVLHQDWLNGKEYKCKVSNKALPRPIEKTISKAKGQPREPQVYTLPPSRKELTKNQVSLTCLVKGFYPSDIAVEWESNGQPENNYKTTPPVLDSDGSFFLYSKLTVDKSRWQQGNVFSCSVMHEALHNRYTQKSLSLSP heavy 2: QVQLQESGPGLVKPSETLSLTCAVSGHSISHDHAWSWVRQPPGEGLEWIGFISYSGITNYNPSLQGRVTISRDNSKNTLYLQMNSLRAEDTAVYYCARSLARTTAMDYWGEGTLVTVSSASTKGPSVFPLAPSSKSTSGGTAALGCLVKDYFPEPVTVSWNSGALTSGVHTFPAVLQSSGLYSLSSVVTVPSSSLGTQTYICNVNHKPSNTKVDKKVEPKSCDKTHTCPPCPAPDLLGDDDVFLFPPKPKDTLMISRTPEVTCVVVDVSDEDGEVKFNWYVDGVEVHNAKTKPREEQYNSTYRVVSVLTVLHQDWLNGKEYKCKVSNKALPRPIEKTISKAKGQPREPQVYTLPPSRDELTKNQVSLTCLVKGFYPSDIAVEWESNGQPENNYKTTPPVLDSDGSFFLYSKLTVDKSRWQQGNVFSCSVMHEALHNHYTQESLSLSP light: not shown | 7.7 | 0.2 | 752 | 34.3
3 | IL6R-AP002/IL6R-BP257/IL6R-L (antibody, human IgG1, kappa, Heterodimerized antibody (two different H chains, same variable region), S239E in one H chain only) heavy 1: QVQLQESGPGLVKPSETLSLTCAVSGHSISHDHAWSWVRQPPGEGLEWIGFISYSGITNYNPSLQGRVTISRDNSKNTLYLQMNSLRAEDTAVYYCARSLARTTAMDYWGEGTLVTVSSASTKGPSVFPLAPSSKSTSGGTAALGCLVKDYFPEPVTVSWNSGALTSGVHTFPAVLQSSGLYSLSSVVTVPSSSLGTQTYICNVNHKPSNTKVDKKVEPKSCDKTHTCPPCPAPDLLGDDSVFLFPPKPKDTLMISRTPEVTCVVVDVSDEDGEVKFNWYVDGVEVHNAKTKPREEQYNSTYRVVSVLTVLHQDWLNGKEYKCKVSNKALPRPIEKTISKAKGQPREPQVYTLPPSRKELTKNQVSLTCLVKGFYPSDIAVEWESNGQPENNYKTTPPVLDSDGSFFLYSKLTVDKSRWQQGNVFSCSVMHEALHNRYTQKSLSLSP heavy 2: QVQLQESGPGLVKPSETLSLTCAVSGHSISHDHAWSWVRQPPGEGLEWIGFISYSGITNYNPSLQGRVTISRDNSKNTLYLQMNSLRAEDTAVYYCARSLARTTAMDYWGEGTLVTVSSASTKGPSVFPLAPSSKSTSGGTAALGCLVKDYFPEPVTVSWNSGALTSGVHTFPAVLQSSGLYSLSSVVTVPSSSLGTQTYICNVNHKPSNTKVDKKVEPKSCDKTHTCPPCPAPDLLGDDEVFLFPPKPKDTLMISRTPEVTCVVVDVSDEDGEVKFNWYVDGVEVHNAKTKPREEQYNSTYRVVSVLTVLHQDWLNGKEYKCKVSNKALPRPIEKTISKAKGQPREPQVYTLPPSRDELTKNQVSLTCLVKGFYPSDIAVEWESNGQPENNYKTTPPVLDSDGSFFLYSKLTVDKSRWQQGNVFSCSVMHEALHNHYTQESLSLSP light: not shown | 8.3 | 0.2 | 657 | 27.7
